B1: homodimeric KIF3A-SNAP labelled with Alexa647 or TMR (natural protein, Mus musculus, UniProt P28741 1-701, looked up)
chain: MPINKSEKPESCDNVKVVVRCRPLNEREKSMCYRQAVSVDEMRGTITVHKTDSSNEPPKTFTFDTVFGPESKQLDVYNLTARPIIDSVLEGYNGTIFAYGQTGTGKTFTMEGVRAVPGLRGVIPNSFAHIFGHIAKAEGDTRFLVRVSYLEIYNEEVRDLLGKDQTQRLEVKERPDVGVYIKDLSAYVVNNADDMDRIMTLGHKNRSVGATNMNEHSSRSHAIFTITIECSEKGVDGNMHVRMGKLHLVDLAGSERQAKTGATGQRLKEATKINLSLSTLGNVISALVDGKSTHVPYRNSKLTRLLQDSLGGNSKTMMCANIGPADYNYDETISTLRYANRAKNIKNKARINEDPKDALLRQFQKEIEELKKKLEEGEEVSGSDISGSEEDDEEGELGEDGEKKKKRRDQAGKKKVSPDKMVEMQAKIDEERKALETKLDMEEEERNKARAELERREKDLLKAQQEHQSLLEKLSALEKKVIVGGVDLLAKAEEQEKLLEESNMELEERRRRAEQLRKELEEKEQERLDIEEKYTSLQEEAQGKTKKLKKVWTMLMAAKSEMADLQQEHQREIEGLLENIRQLSRELRLQMLIIDNFIPQDYQEMIENYVHWNEDIGEWQLKCVAYTGNNMRKQTPVPDKKERDPFEVDLSHVYLAYTEESLRQSLMKLERPRTSKGKARPKMGRRKRSAKPETVIDSLLQ
modifications: Alexa647 or TMR on the SNAP tag
B2: KIF3A purified from E. coli (natural protein, Mus musculus, UniProt P28741 1-701, looked up)
chain: B1 chain
B3: KAP3 (separately purified) (natural protein, Mus musculus, UniProt P70188-1 1-793, looked up)
chain: MQGEDARYLKRKVKGGNIDVHPSEKALIVQYEVEATILGEMGDPMLGERKECQKIIRLKSLNANTDITSLARKVVEECKLIHPSKLSEVEQLLYYLQNRRDSLPGKEKKEKSSKPKDPPPFEGMEIDEVANINDMDEYIELLYEDIPDKVRGSALILQLARNPDNLEELLLNETALGALARVLREDWKQSVELATNIIYIFFCFSSFSHFHGLITHYKIGALCMNIIDHELKRHELWQEELSKKKKAVDEDLENQTLRKDYDKTFKKYQGLVVKQEQLLRVALYLLLNLAEDTRTELKMRNKNIVHMLVKALDRDNFELLILVVSFLKKLSIFMENKNDMVEMDIVEKLVKMIPCEHEDLLNITLRLLLNLSFDTGLRNKMVQVGLLPKLTALLGNENYKQIAMCVLYHISMDDRFKSMFAYTDCIPQLMKMLFECSDERIDLELISFCINLAANKRNVQLICEGNGLKMLMKRALKLKDPLLMKMIRNISQHDGPTKNLFIDYVGDLAAQISSDEEEEFVIECLGTLANLTIPDLDWELVLKEYKLVPFLKDKLKPGAAEDDLVLEVVIMIGTVSMDDSCAALLAKSGIIPALIELLNAQQEDDEFVCQIIYVFYQMVFHQATRDVIIKETQAPAYLIDLMHDKNNEIRKVCDNTLDIIAEYDEEWAKKIQSEKFRWHNSQWLEMVESRQLDESEQYLYGDDRIEPYIHEGDILERPDLFYNSDGLITSEGAISPDFFNDFHLQNGDVVGQHAFPGSLGMDGFGQPLGILGRPATAYGFRPDEPYYYSFGSR

Data set [1] deals with the molecule itself.
Data set [2] deals with the molecule itself. Put plainly: SEC-MALS.
Data set [3] deals with full-length APC-GFP (Mus musculus, UniProt Q61315 1-2845). Put plainly: MST.
Chain of full-length APC-GFP (Q61315 whole entry): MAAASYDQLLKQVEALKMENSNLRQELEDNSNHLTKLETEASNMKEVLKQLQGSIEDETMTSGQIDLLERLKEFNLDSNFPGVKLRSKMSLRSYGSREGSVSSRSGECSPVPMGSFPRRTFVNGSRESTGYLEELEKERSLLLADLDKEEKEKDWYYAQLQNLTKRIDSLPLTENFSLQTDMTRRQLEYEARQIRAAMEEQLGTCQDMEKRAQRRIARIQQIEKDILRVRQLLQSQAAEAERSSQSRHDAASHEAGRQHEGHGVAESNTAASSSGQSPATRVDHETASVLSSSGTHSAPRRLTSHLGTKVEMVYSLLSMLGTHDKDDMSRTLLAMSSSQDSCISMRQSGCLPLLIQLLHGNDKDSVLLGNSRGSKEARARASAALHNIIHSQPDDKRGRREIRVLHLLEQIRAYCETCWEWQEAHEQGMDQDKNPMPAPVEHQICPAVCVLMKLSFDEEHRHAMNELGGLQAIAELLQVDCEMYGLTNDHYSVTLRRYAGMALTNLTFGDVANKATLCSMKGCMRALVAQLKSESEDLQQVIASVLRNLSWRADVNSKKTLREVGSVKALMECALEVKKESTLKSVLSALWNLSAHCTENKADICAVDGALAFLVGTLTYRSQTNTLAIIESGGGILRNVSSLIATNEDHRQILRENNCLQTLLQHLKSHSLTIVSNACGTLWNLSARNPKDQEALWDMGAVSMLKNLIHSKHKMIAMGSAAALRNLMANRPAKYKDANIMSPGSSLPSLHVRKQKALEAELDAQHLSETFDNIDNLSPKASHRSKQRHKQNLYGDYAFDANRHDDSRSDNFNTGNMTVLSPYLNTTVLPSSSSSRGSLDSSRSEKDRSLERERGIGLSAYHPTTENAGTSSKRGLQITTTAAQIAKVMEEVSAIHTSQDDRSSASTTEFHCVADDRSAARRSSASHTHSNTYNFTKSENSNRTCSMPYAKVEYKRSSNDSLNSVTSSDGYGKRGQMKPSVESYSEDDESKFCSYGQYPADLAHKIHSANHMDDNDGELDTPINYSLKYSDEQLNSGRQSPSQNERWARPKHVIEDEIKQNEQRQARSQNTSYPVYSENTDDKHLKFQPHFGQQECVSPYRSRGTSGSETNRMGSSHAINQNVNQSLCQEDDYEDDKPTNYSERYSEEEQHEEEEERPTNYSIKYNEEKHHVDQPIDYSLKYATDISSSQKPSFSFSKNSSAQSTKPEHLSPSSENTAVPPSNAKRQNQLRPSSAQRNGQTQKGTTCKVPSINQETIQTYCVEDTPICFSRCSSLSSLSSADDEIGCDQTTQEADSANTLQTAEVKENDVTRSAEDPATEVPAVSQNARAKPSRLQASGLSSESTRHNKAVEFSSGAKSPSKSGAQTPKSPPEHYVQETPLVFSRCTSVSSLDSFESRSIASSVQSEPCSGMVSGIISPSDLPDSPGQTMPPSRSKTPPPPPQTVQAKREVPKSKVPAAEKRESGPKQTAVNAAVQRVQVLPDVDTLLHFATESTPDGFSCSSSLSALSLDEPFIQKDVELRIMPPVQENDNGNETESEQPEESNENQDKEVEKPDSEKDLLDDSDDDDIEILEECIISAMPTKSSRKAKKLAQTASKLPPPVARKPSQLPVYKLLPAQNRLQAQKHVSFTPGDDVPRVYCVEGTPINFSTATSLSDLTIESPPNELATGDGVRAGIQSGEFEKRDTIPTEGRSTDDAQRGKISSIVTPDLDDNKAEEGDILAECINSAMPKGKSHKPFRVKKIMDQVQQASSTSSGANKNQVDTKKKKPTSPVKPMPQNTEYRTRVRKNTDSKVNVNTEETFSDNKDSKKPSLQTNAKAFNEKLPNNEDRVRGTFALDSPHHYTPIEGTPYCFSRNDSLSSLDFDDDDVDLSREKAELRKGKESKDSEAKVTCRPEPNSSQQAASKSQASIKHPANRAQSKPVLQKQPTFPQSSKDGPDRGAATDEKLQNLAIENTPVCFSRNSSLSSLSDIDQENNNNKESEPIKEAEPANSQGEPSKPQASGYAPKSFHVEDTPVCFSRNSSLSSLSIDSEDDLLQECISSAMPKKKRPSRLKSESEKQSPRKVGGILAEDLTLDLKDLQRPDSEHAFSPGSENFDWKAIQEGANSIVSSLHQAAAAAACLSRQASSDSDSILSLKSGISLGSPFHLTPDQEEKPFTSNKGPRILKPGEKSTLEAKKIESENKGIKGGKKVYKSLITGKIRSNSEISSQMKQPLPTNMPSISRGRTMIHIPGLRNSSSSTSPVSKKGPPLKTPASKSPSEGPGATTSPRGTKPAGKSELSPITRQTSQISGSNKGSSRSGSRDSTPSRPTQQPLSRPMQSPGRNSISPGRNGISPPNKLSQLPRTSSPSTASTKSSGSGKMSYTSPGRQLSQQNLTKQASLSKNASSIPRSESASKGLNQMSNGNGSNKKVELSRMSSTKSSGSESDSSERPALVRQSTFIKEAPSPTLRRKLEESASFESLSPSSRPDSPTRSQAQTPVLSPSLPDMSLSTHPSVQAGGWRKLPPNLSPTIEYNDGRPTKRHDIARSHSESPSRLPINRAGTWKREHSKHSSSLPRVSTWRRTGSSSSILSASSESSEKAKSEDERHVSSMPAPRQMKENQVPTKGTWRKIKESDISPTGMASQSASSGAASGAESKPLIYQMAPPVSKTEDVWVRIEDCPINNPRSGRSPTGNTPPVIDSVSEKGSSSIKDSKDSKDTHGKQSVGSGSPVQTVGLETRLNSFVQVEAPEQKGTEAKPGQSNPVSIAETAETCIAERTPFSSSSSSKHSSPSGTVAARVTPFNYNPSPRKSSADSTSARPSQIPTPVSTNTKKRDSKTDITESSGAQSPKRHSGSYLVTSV
Data set [4] addresses B2. Put plainly: SEC-MALS.

Read-outs that look alike come from different tables or passages of the source.

As for B1, in data set [1], the stoichiometry N (in general, the number of molecules, sites or subunits per partner or assembly) amounted to 2.
For the molecule B2, the “stoichiometry N” value in data set [2] amounted to 2.
B3: in data set [3], the binding result is “binds”. Also, the “stoichiometry N” value in data set [4] is 1 KAP3 per KIF3A dimer.

(Values after paper doi:10.1101/701250 (bioRxiv, 2019).)
